A word on the stoichiometry N: it is the number of molecules, sites or subunits per partner or assembly.

The data set “native MS” deals with the molecule itself. Nature of the data set: native MS.
Another data set has as its target T1, AqpZ, P60844.
T1 chain: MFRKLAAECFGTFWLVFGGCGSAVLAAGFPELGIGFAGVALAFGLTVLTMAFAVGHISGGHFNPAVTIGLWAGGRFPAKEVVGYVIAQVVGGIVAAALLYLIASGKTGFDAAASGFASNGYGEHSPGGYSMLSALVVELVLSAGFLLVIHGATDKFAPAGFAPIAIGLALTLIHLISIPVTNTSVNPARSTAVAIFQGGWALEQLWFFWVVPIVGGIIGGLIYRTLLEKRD
Nature of the data set: native MS. The note with it: remark: other sources report otherwise.

B1: AmtB (natural protein)
chain: VADKADNAFMMICTALVLFMTIPGIALFYGGLIRGKNVLSMLTQVTVTFALVCILWVVYGYSLAFGEGNNFFGNINWLMLKNIELTAVMGSIYQYIHVAFQGSFACITVGLIVGALAERIRFSAVLIFVVVWLTLSYIPIAHMVWGGGLLASHGALDFAGGTVVHINAAIAGLVGAYLIGKRVGFGKEAFKPHNLPMVFTGTAILYIGWFGFNAGSAGTANEIAALAFVNTVVATAAAILGWIFGEWALRGKPSLLGACSGAIAGLVGVTPACGYIGVGGALIIGVVAGLAGLWGVTMLKRLLRVDDPCDVFGVHGVCGIVGCIMTGIFAASSLGGVGFAEGVTMGHQLLVQLESIAITIVWSGVVAFIGYKLADLTVGLRVPEEQEREGLDVNSHGENAYNA
As to B1, in “native MS”, the “stoichiometry N” value worked out at 3.

B2: AqpZ, P60844 1-231 (natural protein)
chain: MFRKLAAECFGTFWLVFGGCGSAVLAAGFPELGIGFAGVALAFGLTVLTMAFAVGHISGGHFNPAVTIGLWAGGRFPAKEVVGYVIAQVVGGIVAAALLYLIASGKTGFDAAASGFASNGYGEHSPGGYSMLSALVVELVLSAGFLLVIHGATDKFAPAGFAPIAIGLALTLIHLISIPVTNTSVNPARSTAVAIFQGGWALEQLWFFWVVPIVGGIIGGLIYRTLLEKRD
In the data set with AqpZ, P60844, B2 returned a stoichiometry N of 4.

(Values after publication PMC6475481 (Journal of the American Chemical Society, 2019).)
